Reference: the nanobody polyreactivity screen of Harvey et al. (2022)

Test: yeast display, Sf9 membrane polyspecificity reagent, FACS + sequencing; frameworks hold sequencing errors
Outline: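 A nanobody's polyreactivity label depends on the gate it was sorted from. Yeast display cells were stained with 10% biotinylated, detergent-solubilized Sf9 membrane reagent for 1 hour at 4 °C, enriched on streptavidin microbeads and sorted by FACS. The low and high (top ~1%) gates were set on anti-HA fluorescence for expression and streptavidin fluorescence for reagent binding.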

## QVQLVESGGGLVQAGGSLSLSCAASGSIFGSYAMGWYRKAPGKERELVAAITGSGVSTYYADSVKGRFTISRDNAKYTVYLQMNSLKPEDTAVYYCAAKRYYARSAYGSYFIVGYWGQGTQVTVSS
  polyreactivity (PSR sort gate): high polyreactivity

## QVQLVESGGGLVQAGGSLSLSCAASGSIFLRNAMGWYRQAPGKERELVAAITWDSGDTYYADSVKGRFTISRDHAKNTVYLQMNSLKPEDTAVYYCNTLGLSSDWGQGTQVTVSS
  polyreactivity (PSR sort gate): low polyreactivity

## QVQLVESGGGLVQAGGSLSLSCAASGSIFLRNAMGWYRQAPGKETEYVASITWNGASTSYADSVMGRFTISRDNAKNTVYLQMNSLKPEDTAVYYCAARDSQYGGPGMDYWGQGTQVTVSS
  polyreactivity (PSR sort gate): low polyreactivity

## QVQLVESGGGLVQAGGSLSLSCAASGSIFNPYGKGWYRQAPGKERELVAAITSSGGDTYYADSVKGRFTISRDNAKNTVYLQMNSLKPEDTAVYYCAATGLPGYYAYDYWGHGTQVTVSS
  polyreactivity (PSR sort gate): low polyreactivity

## QVQLVESGGGLVQAGGSLSLSCAASGSIFNRYTMGWYRQAPGKERELVADISKSGTRTYYADSVKGRFTISRDNAKNTVYLQMNSQKPEDTSVYYCAKSSVAVYQTRYDYWGQGTQVNVSS
  polyreactivity (PSR sort gate): high polyreactivity

## QVQLVESGGGLVQAGGSLSLSCAASGSIFPGNAMGWYRQAPGKERELVAVIDFSGASTYYADSVKGRFTISRDNAKNTVYLQMNSLKPEDTADYWGQGTQVTVSS
  polyreactivity (PSR sort gate): low polyreactivity

## QVQLVESGGGLVQAGGSLSLSCAASGSIFQPYVMGWYRQAPGKEREFVATIRYSGGITYADSVKGRFTISRDNSKNTVYLQMNSLKPVVTAVYYCACYCYCYWGQGTQVNVSS
  polyreactivity (PSR sort gate): low polyreactivity

## QVQLVESGGGLVQAGGSLSLSCAASGSIFRHNVMGWYIPAPGKERELVAAISGGGGRTYYADSVKGRFTISRDNAKNTDYLQMKSLKPEDTAVYYCYAYVGLSEGDYWGQGTHVTVSS
  polyreactivity (PSR sort gate): high polyreactivity

## QVQLVESGGGLVQAGGSLSLSCAASGSIFRYYAMGWYRQAPGKERELVAAITSGGRTNYADSVKGRFTISRDNAKNTVYLQMNSLKREDTAVYYCNKCYNAVWRYRGDYWGQGTQVTVSS
  polyreactivity (PSR sort gate): high polyreactivity

## QVQLVESGGGLVQAGGSLSLSCAASGSIFVIYTMGWYRPAPGKERELVAGITWSTGNTYYADSVKGRFTISRDNAKNTFYLQMNSLKPEDTAVYSCAARTTSRWRSGAYYYWGQGTQVTVSS
  polyreactivity (PSR sort gate): high polyreactivity

## QVQLVESGGGLVQAGGSLSLSCAASGSIFVYKAMGWYRPAHGKERELVAAISSSGGSTYYADSVKGRFTISRDNAKNTVYLQMNSLKPEDTAVYYCAAEAVRKVPSYYSYAYYYWGQGTQVTVSS
  polyreactivity (PSR sort gate): high polyreactivity

## QVQLVESGGGLVQAGGSLSLSCAASGSIFYGNAMGWYRQEPGKERELVAAITYGTSSTYYADSVKGRFTISRDKAKNTVYLQMNSLKPEDTAVYYCAADAKSHPTTRNYVGSPMDYWGQGTQVTVSS
  polyreactivity (PSR sort gate): low polyreactivity

## QVQLVESGGGLVQAGGSLSLSCAASGSIIARYAMGWYRQAPGKERELVAAITWSATSTYYADSVKGRFTISRDNAKNTVYLQMTSLKPEDTAVYYCNAGASYFLVISQSRRDYWGQGTQVTVSS
  polyreactivity (PSR sort gate): low polyreactivity

## QVQLVESGGGLVQAGGSLSLSCAASGSTFDRYAMGWYRQAPGKERELVAAISHSGGRTYYADSVKGRFTISRDNAKNTVYLQMNSLKPEDTAVFYCAAKSRSGTEAAYGYWGQGTQVTVSS
  polyreactivity (PSR sort gate): low polyreactivity

## QVQLVESGGGLVQAGGSLSLSCAASGSTFFSYAMGWYRQAPGKEREFVAAITYSSGRTYYADSVKGRFTISRDNAKNTVYLQMNSLKPEDTAVYYCATTGFVWGRGYDYWGQGTQVTVSS
  polyreactivity (PSR sort gate): high polyreactivity

## QVQLVESGGGLVQAGGSLSLSCAASGSTFGDYAMGWYRQAPGKERELVAAITSSGGRTFYADSVKGRFTISRDNAKNTVYLQMNSLKPEDHAVYYCAAEFTDPPSEYEYWGQGTQVTVSS
  polyreactivity (PSR sort gate): low polyreactivity

## QVQLVESGGGLVQAGGSLSLSCAASGSTFGSNAKGWYRQAPGKARELVAAISSDGSTNYADSVKGRFTISRDNAKNTVYLQMNSLKPEDTAVYYCAADDRHRYNIYDYWGQGTQVTLSS
  polyreactivity (PSR sort gate): low polyreactivity

## QVQLVESGGGLVQAGGSLSLSCAASGSTFRGYAMGWDRQAPGKERELVADSTYYADSVKGRFTISRDNAKNTVYFQMNCLKPEDTAVYYCNADIAGWGSQDGTDDYWGLGTQVTVSS
  polyreactivity (PSR sort gate): high polyreactivity

## QVQLVESGGGLVQAGGSLSLSCAASGSTFSRYGMGGYRQAPGKERELVAAISYSGGGTYYADSVKGRFTISRDNAKNTVYLQMNSQKREDNAVYYCNVEYPKRANLSDYWGQGTQVTVSS
  polyreactivity (PSR sort gate): high polyreactivity

## QVQLVESGGGLVQAGGSLSLSCAASGSTFSVYAMGWYRQAPGKERELVAAITRSGGSTYYADSVKGRFTISRDNAKNTVYLQMNSLIAEDSAVYYCNAEWYYVWFITTYWLDQYGYWGQGTQVTVSS
  polyreactivity (PSR sort gate): low polyreactivity

## QVQLVESGGGLVQAGGSLSLSCAASGSTFVPNLMGWYRQAPGKERELVAAITWSGGTTTFYADSVKGRFTISRDNAKNTVYLQMNSLKPEDTAVYYCAVTRGGQYYPYYYWGQGTQVTVSS
  polyreactivity (PSR sort gate): low polyreactivity

## QVQLVESGGGLVQAGGSLSLSCAASGSTFVPYAMGWYRPAPGKERELVAAISSTGGSTYYADSVKGRFTISRDNAKNTVYLQMNSLKAEDTAVYYCNALAKIRYGQINKGYYWGQGTQVTVSS
  polyreactivity (PSR sort gate): high polyreactivity

## QVQLVESGGGLVQAGGSLSLSCAASGSTFVVNAMGWYRQAPGKERELVAAITQSGGSTFYADSVKGRFPISRDNAKNTVYLQMNSLKPEDTAVYYWGQGTQVTVSS
  polyreactivity (PSR sort gate): low polyreactivity

## QVQLVESGGGLVQAGGSLSLSCAASGSTFYANAMGWYRQAPGKEREFVAAISYNGGSTYYADSVKGRFTISRDNAKNTVYFQMNSLKPEDTAVYYCNVDYDYPYYEVDYWGQGTQVTVSS
  polyreactivity (PSR sort gate): low polyreactivity

## QVQLVESGGGLVQAGGSLSLSCAASGYIFAVYAMGWYRQAPGKEREFVAVITWRGGSTYYADSVKGRFTISRDNAKNTVYLQMNSLKPEDTAVYYCAARWHFLTSSRFDYWGQGTQVTVSS
  polyreactivity (PSR sort gate): high polyreactivity

## QVQLVESGGGLVQAGGSLSLSCAASGYIFRYYAMGSYRQAPGKEREFGAAISWRGGSTYYADSVKGRFTISRDNAKNTVYLQMNRLKPEDTEFYYCAAGYFSFFGHYNAGLDYWGQGTQVTVSS
  polyreactivity (PSR sort gate): high polyreactivity

## QVQLVESGGGLVQAGGSLSLSCAASGYNFYKNAMGWYRPAPGKERELVAAISTRGGSTYYADSVKGRFTISRDNAQITVYLPMNSLKPEDTAVYYCAASQHRRDWGQGTQVTVSS
  polyreactivity (PSR sort gate): high polyreactivity

## QVQLVESGGGLVQAGGSLSLSCAASVRIFVYNVMGWYRQAPGKERELVAAISWGTGSTYADSVKGRFTISRDNAKNTVYLQMNSLKPEDTAVYYCAAAADYYYDHDYWGQGTQVTVSS
  polyreactivity (PSR sort gate): low polyreactivity

## QVQLVESGGGLVQAGGSLSLSCAAYGFTFWKYAMGRSRQAPGKESELVAAISVSGGRTYYADSVKGRFTISGDNAKNTVYLQINSLKPEDTASYYVATSFRNGWGSYYYWGQGTQVTVSS
  polyreactivity (PSR sort gate): high polyreactivity

## QVQLVESGGGLVQAGGSLSLSCADSGSTFPKYAMGWYRQAPGKERELVASISVTTGSTYYADTVKGRFTISRDNAKNTVYLHMNSLKPVDTAVYYCAKRTYSRKLRGAYNYWGQGTQVTVSS
  polyreactivity (PSR sort gate): high polyreactivity

## QVQLVESGGGLVQAGGSLSLSCDASGSIFYYYAMGWYRQAPGKEREMVASITSSGGTTSYADSVKGRFTISRDNAKNTVYLQMNSLKPEDTAVYYCNAQVYRYRICYDFWGEGTQVTVSS
  polyreactivity (PSR sort gate): low polyreactivity

## QVQLVESGGGLVQAGGSLSLSCDASGSIIQGYAMGWYRQAPGKERELVAAISWSGTSTYYADSVKGRFTISRDNAKNTVYLQMNSLKPEDTEVYYCATDYYYYTAEYEYWGQGTQVTVSS
  polyreactivity (PSR sort gate): high polyreactivity
